Experiments:
[1] = biological target: VRC01GL IgG (inferred germline precursor of the VRC01 antibody) (human); assay: BLI; IgG immobilised on anti-AHC biosensors (20 µg/ml in PBS); DS-SOSIP trimer or 426c core in solution, dilution series; Octet Red 96, 29°C, 500 r.p.m.; kinetic buffer (1X PBS, 0.01% BSA, 0.02% Tween 20, 0.005% NaN3); 1:1 binding model; relative apparent affinities
12A21GL IgG (human) = assay: as above
VRC01GL Fab (human) = assay: BLI; Fab immobilised on anti-human Fab-CH1 (FAB2G) biosensors; 426c core in solution; Octet Red 96, 29°C, 500 r.p.m.; kinetic buffer (1X PBS, 0.01% BSA, 0.02% Tween 20, 0.005% NaN3); 1:1 binding model; relative apparent affinities
[2] = biological target: VRC01GL IgG (inferred germline precursor of the VRC01 antibody); assay: BLI; settings: 426c core (293F-expressed) injected at 0.5, 1, 2.5, 4, 5, 10, 20, 40, 80, 160 µM

EndoH-treated 426c core (HEK293 GnTI-/--expressed) (domain or fragment)
Kd [1]: 245 nM

426c S278T core, HEK293 GnTI-/--expressed (domain or fragment)
fold change of KD against the 426c core (12A21GL IgG (human)): 10 fold | fold change of KD against the 426c core [1]: 10 fold

426c DS-SOSIP D3 trimer (from UniProt Q2N0S6 1-860) (complex)
Kd [1]: 43 nM

426c S278A core, HEK293 GnTI-/--expressed (domain or fragment)
Kd [1]: 204 nM

426c core (wild-type NLGSs), HEK293F-expressed (domain or fragment)
Kd (VRC01GL Fab (human)): 11 µM

426c core (wild-type NLGSs), HEK293F-expressed S278A
Kd [2]: 1900 nM

426c core (wild-type NLGSs), HEK293F-expressed S278A; T462A
Kd [2]: 2500 nM

426c core (wild-type NLGSs), HEK293 GnTI-/--expressed (domain or fragment)
Kd (VRC01GL Fab (human)): 15 µM | Kd [1]: 2000 nM

426c core (wild-type NLGSs), HEK293F-expressed S278A; T465A
Kd [2]: 8900 nM

Reference: publication PMC6237438
